Experimental findings from patent US20240024505 are described below.

Series [1] concerns the target endogenous IGFBP-3 in human synovial fluid, P17936.
The target of series [2] is recombinant IGFBP-3, P17936.
Sequence of recombinant IGFBP-3, P17936 (P17936 28-291): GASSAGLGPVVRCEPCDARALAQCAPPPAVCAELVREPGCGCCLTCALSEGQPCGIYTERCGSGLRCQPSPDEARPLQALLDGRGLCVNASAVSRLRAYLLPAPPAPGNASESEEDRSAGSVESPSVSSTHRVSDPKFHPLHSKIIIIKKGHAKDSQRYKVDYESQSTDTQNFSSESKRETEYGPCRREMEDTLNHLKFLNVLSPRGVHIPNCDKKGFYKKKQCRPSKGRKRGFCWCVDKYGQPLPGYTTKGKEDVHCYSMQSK

Sequence of endogenous IGFBP-3 in human synovial fluid, P17936 (P17936 28-291): as above

B1: PAPPA2 from conditioned media (protein)
chain: PPEESNQNGGEGSYREAETFNSQVGLPILYFSGRRERLLLRPEVLAEIPREAFTVEAWVKPEGGQNNPAIIAGVFDNCSHTVSDKGWALGIRSGKDKGKRDARFFFSLCTDRVKKATILISHSRYQPGTWTHVAATYDGRHMALYVDGTQVASSLDQSGPLNSPFMASCRSLLLGGDSSEDGHYFRGHLGTLVFWSTALPQSHFQHSSQHSSGEEEATDLVLTASFEPVNTEWVPFRDEKYPRLEVLQGFEPEPEILSPLQPPLCGQTVCDNVELISQYNGYWPLRGEKVIRYQVVNICDDEGLNPIVSEEQIRLQHEALNEAFSRYNISWQLSVHQVHNSTLRHRVVLVNCEPSKIGNDHCDPECEHPLTGYDGGDCRLQGRCYSWNRRDGLCHVECNNMLNDFDDGDCCDPQVADVRKTCFDPDSPKRAYMSVKELKEALQLNSTHFLNIYFASSVREDLAGAATWPWDKDAVTHLGGIVLSPAYYGMPGHTDTMIHEVGHVLGLYHVFKGVSERESCNDPCKETVPSMETGDLCADTAPTPKSELCREPEPTSDTCGFTRFPGAPFTNYMSYTDDNCTDNFTPNQVARMHCYLDLVYQQWTESRKPTPIPIPPMVIGQTNKSLTIHWLPPISGVVYDRASGSLCGACTEDGTFRQYVHTASSRRVCDSSGYWTPEEAVGPPDVDQPCEPSLQAWSPEVHLYHMNMTVPCPTEGCSLELLFQHPVQADTLTLWVTSFFMESSQVLFDTEILLENKESVHLGPLDTFCDIPLTIKLHVDGKVSGVKVYTFDERIEIDAALLTSQPHSPLCSGCRPVRYQVLRDPPFASGLPVVVTHSHRKFTDVEVTPGQMYQYQVLAEAGGELGEASPPLNHIHGAPYCGDGKVSERLGEECDDGDLVSGDGCSKVCELEEGFNCVGEPSLCYMYEGDGICEPFERKTSIVDCGIYTPKGYLDQWATRAYSSHEDKKKCPVSLVTGEPHSLICTSYHPDLPNHRPLTGWFPCVASENETQDDRSEQPEGSLKKEDEVWLKVCFNRPGEARAIFIFLTTDGLVPGEHQQPTVTLYLTDVRGSNHSLGTYGLSCQHNPLIINVTHHQNVLFHHTTSVLLNFSSPRVGISAVALRTSSRIGLSAPSNCISEDEGQNHQGQSCIHRPCGKQDSCPSLLLDHADVVNCTSIGPGLMKCAITCQRGFALQASSGQYIRPMQKEILLTCSSGHWDQNVSCLPVDCGVPDPSLVNYANFSCSEGTKFLKRCSISCVPPAKLQGLSPWLTCLEDGLWSLPEVYCKLECDAPPIILNANLLLPHCLQDNHDVGTICKYECKPGYYVAESAEGKVRNKLLKIQCLEGGIWEQGSCIPVVCEPPPPVFEGMYECTNGFSLDSQCVLNCNQEREKLPILCTKEGLWTQEFKLCENLQGECPPPPSELNSVEYKCEQGYGIGAVCSPLCVIPPSDPVMLPENITADTLEHWMEPVKVQSIVCTGRRQWHPDPVLVHCIQSCEPFQADGWCDTINNRAYCHYDGGDCCSSTLSSKKVIPFAADCDLDECTCRDPKAEENQ
On to B1, for which, in series [1], the “protease activity: intact IGFBP-3 in synovial fluid by ELISA” value is “Treatment of healthy or diseased human synovial fluid with conditioned media containing PAPPA2 results in a significant decrease in intact IGFBP-3”. In series [2], the “IGF-1 signaling (AP-1 driven bioluminescence) in the presence of IGFBP-3” value was “Treatment with PAPPA2 allows for robust IGF-1 signaling in the modeled healthy and disease-state”; the “protease activity: intact IGFBP-3 by ELISA” value was “PAPPA2 from conditioned media efficiently cleaves IGFBP-3, as measured by an ELISA for intact IGFBP-3, with and without bound IGF-1”.
